Consider six variants from IntAct's records for PubMed 22609948.

B1: Segment polarity protein dishevelled homolog DVL-2 (Mus musculus), Q60838 (parent)
chain: MAGSSAGGGGVGETKVIYHLDEEETPYLVKIPVPAERITLGDFKSVLQRPAGAKYFFKSMDQDFGVVKEEISDDNARLPCFNGRVVSWLVSSDTPQPEVAPPAHESRTELVPPPPPLPPLPPERTSGIGDSRPPSFHPNVSSSHENLEPETETESVVSLRRDRPRRRDSSEHGAGGHRPGGPSRLERHLAGYESSSTLMTSELESTSLGDSDEDDTMSRFSSSTEQSSASRLLKRHRRRRKQRPPRMERTSSFSSVTDSTMSLNIITVTLNMEKYNFLGISIVGQSNERGDGGIYIGSIMKGGAVAADGRIEPGDMLLQVNDMNFENMSNDDAVRVLRDIVHKPGPIVLTVAKCWDPSPQAYFTLPRNEPIQPIDPAAWVSHSAALTGAFPAYPGSSSMSTITSGSSLPDGCEGRGLSVHMDMASVTKAMAAPESGLEVRDRMWLKITIPNAFLGSDVVDWLYHHVEGFPERREARKYASGLLKAGLIRHTVNKITFSEQCYYVFGDLSGGCESYLVNLSLNDNDGSSGASDQDTLAPLPGATPWPLLPTFSYQYPAPHPYSPQPPPYHELSSYTYGGGSASSQHSEGSRSSGSTRSDGGAGRTGRPEERAPESKSGSGSESELSSRGGSLRRGGEPGGTGDGGPPPSRGSTGAPPNLRALPGLHPYGAPSGMALPYNPMMVVMMPPPPPPVSTAVQPPGAPPVRDLGSVPPELTASRQSFHMAMGNPSEFFVDVM

The variants in one assay derive from B1. The settings on record: with plk1_human PLK1, P53350.
Sequence of plk1_human PLK1, P53350 (P53350 whole entry): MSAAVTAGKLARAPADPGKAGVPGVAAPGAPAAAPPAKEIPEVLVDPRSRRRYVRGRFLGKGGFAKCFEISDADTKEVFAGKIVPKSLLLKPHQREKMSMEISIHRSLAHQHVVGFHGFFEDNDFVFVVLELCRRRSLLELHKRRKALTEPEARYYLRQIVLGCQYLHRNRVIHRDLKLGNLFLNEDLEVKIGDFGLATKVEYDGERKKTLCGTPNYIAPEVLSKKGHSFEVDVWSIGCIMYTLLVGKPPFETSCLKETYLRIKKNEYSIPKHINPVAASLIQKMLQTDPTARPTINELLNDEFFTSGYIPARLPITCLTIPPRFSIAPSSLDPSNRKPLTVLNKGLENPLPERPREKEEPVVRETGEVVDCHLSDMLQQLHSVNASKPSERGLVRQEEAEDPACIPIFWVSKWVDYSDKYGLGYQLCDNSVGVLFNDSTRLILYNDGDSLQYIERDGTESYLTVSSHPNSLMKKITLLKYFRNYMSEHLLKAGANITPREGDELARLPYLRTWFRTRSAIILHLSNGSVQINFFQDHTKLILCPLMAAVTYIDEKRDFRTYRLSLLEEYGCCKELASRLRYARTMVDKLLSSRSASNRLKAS
Regarding T224D, the “effect of a mutation on the interaction” value is on record as “disrupting interaction”.

A further assay covers variants of B1. To be noted: with plk1_human PLK1, P53350. This is another data set of the same source.
Regarding T224A, the “effect of a mutation on the interaction” value was “decreasing interaction”.

The variants in a further assay derive from B1. To be noted: with plk1_human PLK1, P53350. This is another data set of the same source.
As for T224E, the “effect of a mutation on the interaction” value was “decreasing interaction”.

Variants of B1 are the subject of a further assay. To be noted: with plk1_human PLK1, P53350. The source holds these as a separate data set.
Consider S143D, for which the “effect of a mutation on the interaction” value was “disrupting interaction”.

Variants of B1 are the subject of the next assay. The settings on record: with plk1_human PLK1, P53350. The source holds these as a separate data set.
Take S143A: the “effect of a mutation on the interaction” value was “disrupting interaction”.

A further assay covers variants of B1. The settings on record: with plk1_human PLK1, P53350. The source holds these as a separate data set.
For the variant S398A, the “effect of a mutation on the interaction” value is “decreasing interaction”.
